Non-standard residues stand in square brackets, D forms with d. No end group written: not given here. *: point of attachment. 5FAM = O=C1OC2(c3ccc(O)cc3Oc3cc(O)ccc32)c2ccc(C(=O)*)cc21; pT = C[C@@H](OP(=O)(O)O)[C@H](N)C(=O)O
B2: Human 14-3-3γΔC (residues 1-235 lacking the C-terminal 13-residue-long flexible tail) (domain or fragment, UniProt P61981 1-235, looked up)
chain: MVDREQLVQKARLAEQAERYDDMAAAMKNVTELNEPLSNEERNLLSVAYKNVVGARRSSWRVISSIEQKTSADGNEKKIEMVRAYREKIEKELEAVCQDVLSLLDNYLIKNCSETQYESKVFYLKMKGDYYRYLAEVATGEKRATVVESSEKAYSEAHEISKEHMQPTHPIRLGLALNYSVFYYEIQNAPEQACHLAKTAFDDAIAELDTLNEDSYKDSTLIMQLLRDNLTLWTS
notes: 14-3-3 protein gamma, human, residues 1-235 (C-terminally truncated)
B4: DAPK2_RNTD, full-length human DAPK2 mutant with the C terminus S367STS370 changed to R367NTD370, autophosphorylated (enzyme)
chain: MFQASMRSPNMEPFKQQKVEDFYDIGEELGSGQFAIVKKCREKSTGLEYAAKFIKKRQSRASRRGVSREEIEREVSILRQVLHHNVITLHDVYENRTDVVLILELVSGGELFDFLAQKESLSEEEATSFIKQILDGVNYLHTKKIAHFDLKPENIMLLDKNIPIPHIKLIDFGLAHEIEDGVEFKNIFGTPEFVAPEIVNYEPLGLEADMWSIGVITYILLSGASPFLGDTKQETLANITAVSYDFDEEFFSQTSELAKDFIRKLLVKETRKRLTIQEALRHPWITPVDNQQAMVRRESVVNLENFRKQYVRRRWKLSFSIVSLCNHLTRSLMKKVHLRPDEDLRNCESDTEEDIARRKALHPRRRRNTD
modifications: phosphothreonine at 369 (stoichiometrically autophosphorylated); autophosphorylated Ser318 (the peptide with Ser318 carried one or two phosphoresidues)
notes: Death-associated protein kinase 2 (DAPK2, DRP-1), human, full length; Cloned into modified pRSFDuet-1 (BamHI, NotI)

How the values were obtained:
[1] = molecular target: B2; assay: fluorescence polarisation; 14-3-3γ (160 µM and binary dilution series) incubated 1 h with 50 nM FAM-labelled peptide; 20 mM HEPES-NaOH pH 7.4, 150 mM NaCl, 0.1% Tween 20, 0.1% BSA; one-site-binding model; apparent KD; settings: both partners purified
[2] = molecular target: the molecule itself; assay: crystal structure; binary complex 14-3-3γΔC:ctDAPK2-pT369 mixed 1:1.2; hanging drop, 290 K; space group R3; 2.7 Å
[3] = molecular target: B4; assay: AUC; sedimentation velocity, 10-molar excess of 14-3-3γ over DAPK2_RNTD; 20 °C; settings: both partners purified
[4] = molecular target: B4; assay: AUC; sedimentation velocity, 10-molar excess of DAPK2_RNTD over 14-3-3γ; 20 °C; settings: both partners purified
[5] = molecular target: B4; assay: AUC; sedimentation velocity, mixtures of 6 μM DAPK2_RNTD and 0.6-60 μM 14-3-3γ; 20 °C; 50 mM HEPES-NaOH pH 7.5, 150 mM NaCl, 1 mM TCEP; settings: both partners purified
[6] = molecular target: T1, dansyl-labeled rat calmodulin (DANS-CaM) (rat, UniProt P0DP29 1-149, dansyl label (dansyl chloride; site not stated)); assay: time-resolved fluorescence intensity and anisotropy decay; 25 μM DANS-CaM, 30 μM DAPK2, with or without 100 μM 14-3-3γ; 23 °C; 20 mM HEPES-NaOH pH 7.5, 150 mM NaCl, 1 mM CaCl2, 1 mM TCEP; settings: both partners purified
T1 construct: calmodulin, rat; Measured with 1 mM CaCl2; also called DANS-Ca^2+/CaM; dansyl-Ca^2+/CaM

[7] = molecular target: T2, rat calmodulin protein (Ca2+/CaM) (rat, UniProt P0DP29 1-149); assay: AUC; sedimentation velocity, 50 μM mixture of DAPK2_RNTD with Ca2+/CaM (1:1 molar ratio) compared with 50 μM DAPK2_RNTD alone; 20 °C; settings: both partners purified
T2 construct: calmodulin, rat; also called rat CaM

B1: FAM-ctDAPK2-pT369 peptide (FAM-RRRSSpTS) (peptide)
peptide: 5FAM-RRRSS[pT]S
notes: source: synthetic peptide (Pepscan Presto BV)
Work on B1 yielded a Kd [1] of 161 ± 7 nM.

B2: binds [2].

B3: Human 14-3-3γ WT (natural protein, UniProt P61981 1-247, looked up)
chain: MVDREQLVQKARLAEQAERYDDMAAAMKNVTELNEPLSNEERNLLSVAYKNVVGARRSSWRVISSIEQKTSADGNEKKIEMVRAYREKIEKELEAVCQDVLSLLDNYLIKNCSETQYESKVFYLKMKGDYYRYLAEVATGEKRATVVESSEKAYSEAHEISKEHMQPTHPIRLGLALNYSVFYYEIQNAPEQACHLAKTAFDDAIAELDTLNEDSYKDSTLIMQLLRDNLTLWTSDQQDDDGGEGNN
notes: 14-3-3 protein gamma, human, wild type; it speaks of the protein as a dimer
With B3 the “stoichiometry N” value [3] was 2 14-3-3γ per DAPK2 (printed 2:1), the “stoichiometry N” value [4] was 1 14-3-3γ per DAPK2 (printed 2:2) and the Kd [5] was less than 100 nM.

B4: binds [6]; binds [7].

B5: DAPK2_RNTD S318A (enzyme)
chain: MFQASMRSPNMEPFKQQKVEDFYDIGEELGSGQFAIVKKCREKSTGLEYAAKFIKKRQSRASRRGVSREEIEREVSILRQVLHHNVITLHDVYENRTDVVLILELVSGGELFDFLAQKESLSEEEATSFIKQILDGVNYLHTKKIAHFDLKPENIMLLDKNIPIPHIKLIDFGLAHEIEDGVEFKNIFGTPEFVAPEIVNYEPLGLEADMWSIGVITYILLSGASPFLGDTKQETLANITAVSYDFDEEFFSQTSELAKDFIRKLLVKETRKRLTIQEALRHPWITPVDNQQAMVRRESVVNLENFRKQYVRRRWKLAFSIVSLCNHLTRSLMKKVHLRPDEDLRNCESDTEEDIARRKALHPRRRRNTD
notes: Death-associated protein kinase 2 (DAPK2), human, full length, made from DAPK2_RNTD
B5: binds [6].

B6: DAPK2 WT, full-length human DAPK2, autophosphorylated (enzyme)
chain: MFQASMRSPNMEPFKQQKVEDFYDIGEELGSGQFAIVKKCREKSTGLEYAAKFIKKRQSRASRRGVSREEIEREVSILRQVLHHNVITLHDVYENRTDVVLILELVSGGELFDFLAQKESLSEEEATSFIKQILDGVNYLHTKKIAHFDLKPENIMLLDKNIPIPHIKLIDFGLAHEIEDGVEFKNIFGTPEFVAPEIVNYEPLGLEADMWSIGVITYILLSGASPFLGDTKQETLANITAVSYDFDEEFFSQTSELAKDFIRKLLVKETRKRLTIQEALRHPWITPVDNQQAMVRRESVVNLENFRKQYVRRRWKLSFSIVSLCNHLTRSLMKKVHLRPDEDLRNCESDTEEDIARRKALHPRRRSSTS
modifications: autophosphorylated at Ser318 and at two additional sites, at least, within the C-terminal 14-3-3-binding motif
notes: Death-associated protein kinase 2 (DAPK2, DRP-1), human, full length
B6: binds [6].
